Results as given in patent US9937265B2, “Self-assembling peptide and polysaccharide complexes” (University of Leeds, priority 2013, dated 2018).

Key:
Format in all cases: physicochemical
[1] = High resolution 1H-NMR study of peptide self-assembly as a function of concentration and time (c*); settings: for c*: critical concentration for aggregation, physiological-like solution, with GAG estimated from monomer level at ~5000 μM total peptide
Protocol: High Resolution ^1H-NMR Study of Peptide Self-Assembly as a Function of Concentration
(2,2,3,3-d4)-trimethylsilyl-3-propionic acid (TMSP, chemical shift 0 ppm) an internal reference standard was added to all peptide solutions. NMR data were acquired at room temperature. A pre-saturation program was used to minimize the water peak, and 1024 scans were measured per spectrum. Sample spectra were recorded at various time-points after preparation to ensure the solutions had reached stable equilibrium. The aromatic multiplet at chemical shift 6.9-7.8 ppm was integrated, relative to the reference peak.
High resolution solution ^1H NMR was used to follow the self-assembly of the peptides in physiological-like solutions as a function of time. To measure self-assembly, the line width broadening of the NMR spectra is exploited. The population of peptide in an aggregated state gives rise to spectra that are so broad that they are lost in the baseline; in contrast, the population of peptide in monomeric state gives rise to high resolution spectra. By integrating the splitting pattern arising from the aromatic region and normalising it with respect to the peak observed due to a known standard, the fraction of monomer can be estimated.

[2] = Visual observation of gelation of peptide and peptide:GAG samples (systematic mixing study); settings: for Gel appearance: 20 mg/ml (Table 3); for Time to gel 20 mg/ml / self-assembly and gelation / time to form a self-supporting gel (gelation time) / Gel lifetime 20 mg/ml: 20 mg/ml peptide; for c*gel: peptide alone
Protocol: Preparation of Peptide Solutions
Solutions of peptides were prepared directly in either D2O or H2O containing either 130 or 200 mM NaCl or PBS. Peptide concentrations in the millimolar range given for the NMR studies were values multiplied by an appropriate factor to account for the actual percentage peptide content. The samples were vortexed for 20 seconds, and then sonicated for 15 minutes. Solution pD was measured and adjusted to either 7.4 or 6.0±0.5 using a calibrated pH meter and the relation pD =pH meter reading +0.417. Any adjustment of pD, if necessary, was made with minimal μL volumes of either HCl or DCl and/or either NaOH or NaOD. Finally, solution vials were closed, sealed with PTFE tape, and then warmed to approximately 80° C. to maximise peptide solubility. Solutions were left to equilibrate at room temperature.
Preparation of Peptide:Glycosaminoglycan Gels.
The concentration of peptide was kept constant for each sample (20 mg/ml) and the molar ratio of GAG subunit to one peptide was increased. The samples were named by the number of GAG subunits to each peptide present e.g. P11-12:GAG 1:10=one P11-12 peptide monomer to ten GAG dimer subunits. GAG was added to peptide solutions after preparation as stated above. The mixtures were vortexed as heated again to ensure complete mixing.
The effects of mixing chondroitin sulphate GAG with the peptides were investigated. It was hypothesised that the charged GAG chains would interact electrostatically with the charged peptides. To establish whether such an interaction was possible, visual observations of a systematic mixing study was carried out and the morphology of the aggregates formed during mixing studied using TEM. • P11-4: […]

[3] = Rheological study of peptide and peptide:glycosaminoglycan gels (amplitude and frequency sweeps); settings: for G′ at 2 Hz 20 mg/ml / G″ at 2 Hz 20 mg/ml: 2 Hz (walking frequency); for G′ at 2 Hz 20 mg/ml / G″ at 2 Hz 20 mg/ml / plateau elastic modulus G′N°: 25° C.; for J, lower limit of the distance between nearest cross links: calculated from plateau elastic modulus by rubber-like elasticity theory, T=298K; for plateau elastic modulus G′N° / Phase angle: peptide gels in PBS at 20 mg/ml; for Phase angle: 25° C. (Table 2)
Protocol: Rheological Study of Peptide:Glycosaminoglycan Gels
Measurements were performed using a cone-plate geometry (cone angle: 1°, diameter: 50 mm, gap: 0.033 mm). All the tests were performed at 25° C., utilizing a solvent trap and the atmosphere within was kept saturated to minimize evaporation of the peptide samples. To ensure the measurements were made in the linear viscoelastic regime (LVER), amplitude sweeps were performed in a shear strain controlled mode from 0.01-100%. Two amplitude sweeps were carried out for each sample (1 Hz and 20 Hz) and a strain level was chosen at which the elastic modulus (G′) and viscous modulus (G″) were independent of strain amplitude at the two different frequency levels. The dynamic moduli of the hydrogels were measured as a frequency function with the sweeps carried out between 1 and 20 Hz. Samples were allowed to equilibrate for 15 minutes once loaded prior to the start of testing. Fresh samples were used for the amplitude and frequency sweeps. After the frequency sweeps, two more amplitude weeps (1 Hz and 20 Hz) were carried out in a stress controlled mode to confirm the testing was performed within the LVER. The stress range was chosen based on the stress values from the frequency sweeps at 1 and 20 Hz: if these two values were then independent of stress amplitude, then this confirmed that testing was within the LVER.
Tests were conducted to provide a peptide gel of similar stiffness to that of the nucleus pulposus. Rheometry was carried out on the peptide gels in PBS at 20 mg/ml. Amplitude sweeps were first carried out to determine the LVER region.
The rheological properties of the peptide:GAG samples were examined and compared to the rheological properties of peptides alone to establish how the addition of GAG affected the material properties of the gels. The frequency sweeps from the study (data not shown) for the various peptide:GAG combinations can be summarized as follows: P11-4: GAG and viscous modulus vs. frequency, starting frequency 1 Hz, end frequency: 20 Hz, strain controlled: 0.15% (control), 0.175% (1:2) and 0.04% (1:10). Temp: 25° C. 20 days old. P11-8:GAG elastic and viscous modulus vs. frequency, starting frequency 1 Hz, end frequency: 20 Hz, Strain controlled: 0.1% (1:2 and 1:10), Temp: 25° C., 1.5 months old. P11-9:GAG elastic and viscous modulus vs. frequency, starting frequency 1 Hz, end frequency: 20 Hz, Strain controlled: 0.5%, Temp: 25° C. P11-12:GAG Elastic and viscous modulus vs. frequency, starting frequency 1 Hz, end frequency: 20 Hz, Strain controlled: 0.25% (1:0.5), 0.1% (1:2), 0.05% (1:10), 0.15% (1:100), Temp: 25° C. 1:0.5, 1:2 and 1:10 2 months old and 1:100 6 days old. • P11-4: […]

[4] = Peptide dissolution from gel into supernatant (UV spectroscopy, 279 nm); settings: at 3-4 days, 20 mg/ml gel
Protocol: 2.5 ml of 130 mM NaCl, D2O, pD 7.4 supernatant was added on top of the SAP:GAG gels. The concentration of peptide dissolved into the supernatant as a function of time was determined via UV spectroscopy. The UV wavelength of 279 nm corresponds to the […] of the tryptophan residue, found in position 6 of the SAP, and so this can be used to determine the molar concentration of the peptide taking into account the molar extinction coefficient of the tryptophan residue.

Row | Substance | c* [1] [µM] | Gel appearance [2] | Time to gel 20 mg/ml [2] | self-assembly and gelation [2] | G′ at 2 Hz 20 mg/ml [3] | G″ at 2 Hz 20 mg/ml [3] [Pa] | time to form a self-supporting gel (gelation time) [2] | Gel lifetime 20 mg/ml ([2]; unit in cell beside) [mth] | c*gel [2] [µM] | J, lower limit of the distance between nearest cross links [3] [nm] | plateau elastic modulus G′N° [3] | Phase angle [3] [°] | Gel lifetime 20 mg/ml ([2]; yr and mths or words printed in the cell) | gel stiffness / moduli compared, in words ([3]; frequency sweeps, compared with peptide alone or other gels) | time to reach equilibrium state of self-assembly ([1]; 1H NMR aromatic integral vs time, without GAG) | peptide dissolved from the gel [4] [%] | gel state on storage ([2]; after a year)
1 | CH3CO-O-Q-O-F-O-W-O-F-O-Q-O-NH2 [Peptide P11-28] | >3100 | Clear liquid | never | does not self-assemble |  |  |  |  |  |  |  |  |  |  |  |  | 
2 | CH3CO-Q-Q-R-F-E-W-E-F-E-Q-Q-NH2 (Ac-QQRFEWEFEQQ-NH2) [Peptide P11-4] | 310 ± 140 | Slightly cloudy | mins-hours |  | 1,065 Pa | 205 | hours | >1 | 2000 ± 600 |  |  |  |  |  |  |  | 
3 | CH3CO-Q-Q-R-F-O-W-O-F-E-Q-Q-NH2 (QQRFXWXFEQQ; HELM PEPTIDE1{[ac].Q.Q.R.F.[Orn].W.[Orn].F.E.Q.Q.[am]}$$$$V2.0; SMILES CC(=O)N[C@@H](CCC(N)=O)C(=O)N[C@@H](CCC(N)=O)C(=O)N[C@@H](CCCNC(=N)N)C(=O)N[C@@H](Cc1ccccc1)C(=O)N[C@@H](CCCN)C(=O)N[C@@H](Cc1c[nH]c2ccccc12)C(=O)N[C@@H](CCCN)C(=O)N[C@@H](Cc1ccccc1)C(=O)N[C@@H](CCC(=O)O)C(=O)N[C@@H](CCC(N)=O)C(=O)N[C@@H](CCC(N)=O)C(N)=O) [Peptide P11-8] | 400 ± 100 | Inhomogenous | days |  | 4,881 Pa | 552 | days |  | 2000 ± 600 | 11.6 | 5,221 kg m^−1s^−2 | ~8 | Still some self- |  |  |  | 
4 | CH3CO-S-S-R-F-O-W-O-F-E-S-S-NH2 (SSRFXWXFESS; HELM PEPTIDE1{[ac].S.S.R.F.[Orn].W.[Orn].F.E.S.S.[am]}$$$$V2.0; SMILES CC(=O)N[C@@H](CO)C(=O)N[C@@H](CO)C(=O)N[C@@H](CCCNC(=N)N)C(=O)N[C@@H](Cc1ccccc1)C(=O)N[C@@H](CCCN)C(=O)N[C@@H](Cc1c[nH]c2ccccc12)C(=O)N[C@@H](CCCN)C(=O)N[C@@H](Cc1ccccc1)C(=O)N[C@@H](CCC(=O)O)C(=O)N[C@@H](CO)C(=O)N[C@@H](CO)C(N)=O) [Peptide P11-12] | 2300 ± 750 | Cloudy self- | minutes |  | 20,510 Pa | 3067 | minutes |  | 2300 ± 750 | 7.2 | 22,285 kg m^−1s^−2 | ~9 |  | forms the stiffest gel | around 1 month | 39.9±9.15 | 
5 | CH3CO-Q-Q-O-F-O-W-O-F-O-Q-Q-NH2 (QQXFXWXFXQQ; HELM PEPTIDE1{[ac].Q.Q.[Orn].F.[Orn].W.[Orn].F.[Orn].Q.Q.[am]}$$$$V2.0; SMILES CC(=O)N[C@@H](CCC(N)=O)C(=O)N[C@@H](CCC(N)=O)C(=O)N[C@@H](CCCN)C(=O)N[C@@H](Cc1ccccc1)C(=O)N[C@@H](CCCN)C(=O)N[C@@H](Cc1c[nH]c2ccccc12)C(=O)N[C@@H](CCCN)C(=O)N[C@@H](Cc1ccccc1)C(=O)N[C@@H](CCCN)C(=O)N[C@@H](CCC(N)=O)C(=O)N[C@@H](CCC(N)=O)C(N)=O) [Peptide P11-14] | >3600 | Clear liquid | never | does not self-assemble |  |  |  |  |  |  |  |  |  |  |  |  | 
6 | CH3CO-S-S-R-F-E-W-E-F-E-S-S-NH2 (Ac-SSRFEWEFESS-NH2) [Peptide P11-9] | 1160 ± 175 | Clear self- | minutes |  | 8 Pa | 5 | minutes |  | 4500 ± 1500 |  |  |  |  |  |  |  | still a self-supporting gel
